Source: PMC6149694, “Engineering the L-Arabinose Isomerase from Enterococcus Faecium for D-Tagatose Synthesis” (Molecules : A Journal of Synthetic Chemistry and Natural …, 2017)
Values joined by “and” are separate entries in the source; they are usually repeats but may differ in a detail not shown here. Equal entries are not always repeated.

B1: N-terminal His-tagged L-arabinose isomerase (L-AI) from Enterococcus faecium DBFIQ E36 (enzyme, UniProt Q3Y1E5 1-474, looked up)
chain: MLNIGEKEFWFVVGSQHLYGEEALREVKKHAQEMVDELNENGQLPYPIRLQELAVTADTITKIMKEVNYREEVAGVITWMHTFSPAKMWIRGTKLLQKPLLHLATQYNESIPWKTIDMDFMNLNQSAHGDREYGFINARLNKQNKIVVGYWKRPEIQKEIADWMDVAVAYNESFGIKVARFGDNMRNVGVTEGDKVEAQIQFGWTVDYFGIGDLVQVIDRVSDEEVDQLFEEYKELYTFDYGDYEEKTWEEHVKVQAQQEIGIRRFLEEGGYNAFTTNFEDLYGMKQLPGLAVQRLMAEGYGFAGEGDWKTAAIDRLLKIMARGKDTGFMEDYTYELASGQEAILESHMMEVDPTLAATKPRIVVSPLSMGDREDPARLVFDGKAGEGVVVSMADFGTHYKLLINEVEAFEPTTEAPNLPVARVLWKTKPNFHEGVHSWIQAGGGHHTVVSLNLTTDQIETWAKLVELETVVIR
notes: codon-optimised synthetic gene; the construct has 481 aa including the initial methionine (MW 55,036); also called N-His-L-AI; recombinant L-AI; not shown: His6, N-terminal, kept
B2: C-terminal His-tagged L-arabinose isomerase (L-AI) from Enterococcus faecium DBFIQ E36 (enzyme, UniProt Q3Y1E5 1-474, looked up)
chain: B1 chain
notes: codon-optimised synthetic gene; the construct has 482 aa including the initial methionine (MW 55,221); also called C-His-L-AI; recombinant L-AI; not shown: His6, C-terminal, kept

Target: the molecule itself
Test: AUC; sedimentation velocity, 20 °C, 50 mM sodium phosphate buffer pH 7.0, absorbance at 285 nm, c(s) by SEDFIT; distributions shown for 0.43 g L^-1 N-His-L-AI and 0.3 g L^-1 C-His-L-AI; self-association, monomer to oligomers

Row | Protein | stoichiometry N
1 | B1 | 4 and 6
2 | B2 | 3 and 6
